Reference: US20200131473A1, “METHOD OF GENERATING 2 CELL-LIKE STEM CELLS” (IFOM FONDAZIONE ISTITUTO FIRC DI ONCOLOGIA MOLECOLARE, priority 2017, published 2020)

Experiments:
Type in all cases: cell-based, mouse
[1] = test system: pZscan4-Emerald ESCs; test: FACS analysis of Zscan4-Emerald ESCs (Emerald-GFP positive cells)
Method: (§1) All treatments including APH, HU, UV, ATRi, ATMi and Chk1i were added in to fresh ESC medium and the cells were kept in 37° C. and 3% 02 tension for overnight (16-17 hrs) unless mentioned in each particular result section. APH was used at various concentrations ranging from 0.3 uM to 6 uM that is mentioned in each experiment in order to induce mild to acute replication stress response. Similarly, HU was used at 0.1 mM-3 mM. ATMi (KU-55933) and ATRi (VE 822) were used at the concentration of 10 uM and 1 uM respectively. Moreover, Chk1i (UCN-01) at the concentration of 100 nM was used. UV radiation was performed at the dosage ranging from 2 to 10 J/m2. For induction of ETAA1-AAD expression, Dox was used at the concentration of 1 μg/mL for 48 hrs.
ESCs were fixed and permeabilized using Cytoperm/Cytofix kit (BD Biosciences), and subsequently stained for one hour at room temperature with Alexa Fluor® 647 anti-H2AX-Phosphorylated (Ser139) antibody (Biolegend) or P-CHK1-PE conjugated antibody (cell signaling 12268). Cells were washed and acquired on a FACS Calibur instrument or Attune NxT (Thermo Fisher Scientific). For Emerald-GFP acquisition, cells were trypsinized, collected and subsequently acquired without fixation. Cell cycle profiles were acquired after incubation with DAPI (4′,6-diamidino-2-phenylindole) overnight. […]

[2] = test system: 2C-like genes (Zscan4, MuERV-L/MERVL, Dux) in ESCs (E14, R1); test: qPCR for 2C-like specific genes in ESCs; conditions: Dox-inducible expression of ETAA1-AAD
Method: as §1
RNA was extracted using RNeasy mini kit (QIAGEN), quantified by NanoDrop spectrophotometer and cDNA was prepared from 2 μg total DNA-depleted RNA using SuperScript™ III reverse transcriptase kit (Invitrogen cat #18080-093) following manufacturer's instructions. qPCR assay performed based on standard protocol using 10× SsoFast™ EvaGreen® Supermix or later 1× LightCycler 480 SYBR Green I Master (Roche, 04707516001), 0.5 μM primer mix and 5 ng of cDNA. GAPDH was used as internal control to normalise the qPCR data following ΔΔCt method, 10 μM primer mix and a total amount of cDNA corresponding to 5 ng of starting RNA for each reaction.

[3] = test system: ATR pathway (γH2AX, CHK1, CHK2 phosphorylation); test: FACS and immunoblot for ATR pathway activation upon ETAA1-AAD overexpression; conditions: for number of γH2AX positive cells: versus empty vector (EV) infected ESCs
Description: ESCs were fixed and permeabilized using Cytoperm/Cytofix kit (BD Biosciences), and subsequently stained for one hour at room temperature with Alexa Fluor® 647 anti-H2AX-Phosphorylated (Ser139) antibody (Biolegend) or P-CHK1-PE conjugated antibody (cell signaling 12268). Cells were washed and acquired on a FACS Calibur instrument or Attune NxT (Thermo Fisher Scientific). For Emerald-GFP acquisition, cells were trypsinized, collected and subsequently acquired without fixation. Cell cycle profiles were acquired after incubation with DAPI (4′,6-diamidino-2-phenylindole) overnight. For Caspase3 FACS analysis after fixation and permeabilization, Cleaved Caspase3 antibody were used for one hr at RT followed by washes and one hr incubation in donkey anti rabbit secondary antibody. […]
The cells were trypsinized and washed with PBS and then lysed in RIPA buffer plus protease/phosphatase inhibitor cocktail (cell signaling, #5872), incubating for 30 minutes on a rotating wheel at +4° C. Lysates were sonicated with a Bioruptor Sonication System (UCD200) at high power for 3 cycles of 30 seconds with one minute breaks. Lysates were centrifuged at 13000 rpm for 20-30 minutes and clear supernatants were transferred to new tubes. The proteins were quantified using Bio-Rad protein assay and following manufacturer's instructions. For the detection of each protein, 35 μg of total protein extracts were loaded. Standard western blot was performed using following antibodies: ATR antibody (Cell Signaling 2790), Phoshpho-Chk1 antibody-S345 (Cell signaling 2348), Phoshpho-Chk1 antibody S317 (cell signaling 12302), Zscan4 antibody (Abcam ab4340), total Chk1 antibody (Santa Cruz 8408) and Chk2 antibody (Millipore 05-649), Anti-P53 (Cell Signalling, 2524S) and Anti-p-P53 (S15) (Cell Signalling, 12571S), Anti-Goat ALexa488 (Thermo Fisher Scientific, A-11055), Anti-Rabbit Cy3 (Jackson ImmunoResearch, 711-165-152), Anti-Mouse Alexa647 (Thermo Fisher Scientific, A-31571). […]

B1: ETAA1-AAD: ATR activating domain of Ewing's tumor-associated antigen 1, overexpressed in ESCs by lentivirus (SEQ ID NO: 2) (protein)
chain: VRQREQPPTAALCSKSNPEERYETPKRALKMETDSLSSSFSSPNDPDGQNDIFWDQNSPLTKQLGKGRKKQIYTTDSDEISHIVNRIAPQDEKPTTNSMETLDMETWIGETAIPCTPSVAKGKSRAKISCTKLKTQSQEEELMETKLAKQFDKNMETEELDVIQEQNKRNYDFTQ
- Z+ population in ESCs culture ([1]; Dox-inducible expression of ETAA1-AAD): significant increase
- increase in the number of Zscan4-positive population in ESC culture ([1]; ETAA1-AAD lentivirus infected Zscan4-Emerald ESCs vs empty vector): up to 3 fold
- transcription of Zscan4, Dux and MERVL [2]: transcriptional activation of Zscan4, Dux and MERVL
- phosphorylation of H2AX, CHK1 and CHK2 in ESCs ([3]; ATR activation through ETAA1 expression): leads to the phosphorylation of H2AX and CHK1 but not CHK2
- number of γH2AX positive cells [3]: increase in the number of γH2AX cells
- number of γH2AX positive cells ([3]; listed as ETAA1-AAD lentivirus): increase in the number of γH2AX positive cell
